US20180022781A1 (INSERM INSTITUT NATIONAL DE LA SANTE ET DE LA RECHERCHE …, published 2018)

Target: T1, full-length Ty1 IN (IN1-635) fused to Gal4 activating domain (Saccharomyces cerevisiae, UniProt P0C2I7 583-1217)
T1 construct: the residue numbers of the constructs agree with it
T1 sequence: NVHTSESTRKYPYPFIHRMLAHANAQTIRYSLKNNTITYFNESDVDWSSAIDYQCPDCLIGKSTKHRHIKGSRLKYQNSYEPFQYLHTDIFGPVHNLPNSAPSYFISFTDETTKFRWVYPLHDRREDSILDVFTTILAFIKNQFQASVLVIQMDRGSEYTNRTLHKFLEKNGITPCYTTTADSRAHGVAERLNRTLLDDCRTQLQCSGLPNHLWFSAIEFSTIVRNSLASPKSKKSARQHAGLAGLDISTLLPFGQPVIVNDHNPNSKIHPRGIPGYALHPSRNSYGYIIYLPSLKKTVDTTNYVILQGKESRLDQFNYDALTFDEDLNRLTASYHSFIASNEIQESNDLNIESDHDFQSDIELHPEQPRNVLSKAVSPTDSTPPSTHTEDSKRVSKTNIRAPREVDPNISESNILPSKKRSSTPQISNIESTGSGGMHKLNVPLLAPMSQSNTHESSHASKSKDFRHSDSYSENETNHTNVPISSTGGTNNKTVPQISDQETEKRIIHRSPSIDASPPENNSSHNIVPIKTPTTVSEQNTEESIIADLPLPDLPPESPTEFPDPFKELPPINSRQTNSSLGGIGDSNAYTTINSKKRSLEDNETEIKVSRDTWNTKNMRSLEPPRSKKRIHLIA
Assay: yeast two-hybrid
From the text: (A) Two-hybrid interaction between different domains of Ty1-IN and AC40 or AC40sp. Left, Ty1 structure. Two open reading frames, GAG and POL (historically TYA and TYB), are flanked by two LTRs (black triangles). Protease (PR), integrase (IN), reverse transcriptase-RNAse H (RT/RH). The left-right arrow indicates Ty1 sequences recovered in the two-hybrid screen (2-HS) with AC40 as bait (coordinates 2706-4342 in Ty1). Ty1-IN regions fused to Gal4 activating domain (GAD) are depicted. Right, serial 10-fold dilutions of liquid cultures of cells expressing AC40 or AC40sp fused to Gal4 binding domain (GBD) and the various GAD-IN proteins were plated onto non-selective (Control) or selective (Interaction) media to detect interactions. (B) Co-immunoprecipitation of AC40 and IN-Strep. A 6×HA epitope was inserted at the end of the endogenous RPC40 gene (AC40-HA) and IN was fused with streptavidine (IN-Strep) and expressed from a galactose inducible promoter. Immunoprecipitation of protein extracts was performed with anti-HA magnetic beads coupled to IgG. […] (C) Co-immunoprecipitation of AC40 and IN expressed from a galactose inducible functional Ty1 element. Immunoprecipitation conditions are as in FIG. 3B.

B1: S. pombe AC40 (AC40sp) fused to Gal4 binding domain (GBD-AC40sp) (other, UniProt P04386 1-147, looked up)
chain: MKLLSSIEQACDICRLKKLKCSKEKPKCAKCLKNNWECRYSPKTKRSPLTRAHLTEVESRLERLEQLFLLIFPREDLDMILKMDSLQDIKALLTGLFVQDNVNKDAVTDRLASVETDMPLTLRQHRISATSSSEESSNKGQRQLTVSMAAVDRSRTEISVLSDRVTDVGSVDFPGYYFDEDNIWDLDKFKKNLKVSITSLDQETMVFEISGIDASIANAFRRILIAEIPTLAFEFVYIINNTSIIQDEVLSHRIGLVPISADPDMFKWFQHPLPGQEATHTDYDTVVFSLNKKCEFNKNAATDEKDPKRLYVNSEVYSGDLIWKPQGRQEERFADNPIRVVNPDIVVAKLRPGQEIDLEAHAILGIGQDHAKFSPVATASYRLLPTIHILSPIEGEDAVKFQKCFPKGVIELEEGPDGKKQARVADVRKDTVSRECLRHPEFADKVQLGRVRDHYLFSVESTGIMKPDVLFIKSIAVLKSKCLAVKSSLQNISSD
Q: Does B1 bind?
A: Result: no binding
